Results on 35 sequences are retold here after the supplement of paper PMC12764529.

± gives the half width of the 95% confidence interval.

Data set [1] is described as follows: folding stability dG unfold from trypsin proteolysis; higher = more stable. A digest of the protocol: (§1)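 Bayesian fitting of sequencing counts gave K50 for each design. Unfolding free energy followed by setting this against a sequence-predicted unfolded-state K50 and a shared folded-state K50, either per protease or with trypsin and chymotrypsin combined. The designs, under 80 residues and lacking cysteine, were digested in a PA-tagged cDNA display format at 11 threefold-diluted protease concentrations and without protease, and only those with AlphaFold2 dimer inter-PAE above 15 were kept.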

Data set [2] in a line: folding stability dG unfold from chymotrypsin proteolysis; higher = more stable. A digest of the protocol: as §1
Data set [3] in a line: folding stability dG unfold (combined trypsin and chymotrypsin); higher = more stable. A digest of the protocol:
as §1

On to “SAGGSAGGSAGGLSLKVKNKKTGKWYDIESIEVKKDPSSGKPVIKIKTSGPKEVEKELVSAGGSAGGSAGGS [r10_663_TrMRF]”, for which the “folding stability dG unfold” value in data set [1] is -0.894 ± 0.34 kcal/mol; in data set [2] it was -0.178 ± 0.22 kcal/mol; in data set [3] it was -0.34 ± 0.4 kcal/mol.

Take “SAGGSAGGSAGGLVAKVYRDGKEAVFYFDSPEEMVESIRPLFPDGKEVKVEVTTPEELFSAGGSAGGSAGGS [r10_1167_TrMRF]”: the “folding stability dG unfold” value in data set [1] was -0.677 ± 0.16 kcal/mol; in data set [2], 0.22 ± 0.27 kcal/mol; in data set [3] it was 0.0392 ± 0.24 kcal/mol.

For “SAGGSAGGSAGGLVEQAVRAIREAKKAGLKEVVIYLSEEQKEAVKEAAEKEGLKVKIVPESAGGSAGGSAGG [r11_371_TrROS_Hall]”, the “folding stability dG unfold” value was found to be 0.244 ± 0.048 kcal/mol in data set [1], 0.814 ± 0.021 kcal/mol in data set [2] and 0.589 ± 0.086 kcal/mol in data set [3].

On to “SAGGSAGGSAGGLVLRGPNDSLLFVLYNPDTGLAVFYNPATNQLLVVNLPLPKPKPSELLSAGGSAGGSAGG [r7_383_TrMRF]”, for which the figures for the “folding stability dG unfold” value in data set [1], in data set [2] and in data set [3] were 2.38 ± 0.089 kcal/mol, 2.81 ± 0.049 kcal/mol and 2.68 ± 0.15 kcal/mol, respectively.

With “SAGGSAGGSAGGLVLTSTSFTSSNTMVVTTTTLTTNADGSLSTTSTTTTTPVPPPKPGLPSAGGSAGGSAGG [r11_728_JUSTAS]”, the “folding stability dG unfold” value in data set [1] came to 0.161 ± 0.042 kcal/mol; in data set [2], 0.509 ± 0.092 kcal/mol; in data set [3], 0.443 ± 0.077 kcal/mol.

Regarding “SAGGSAGGSAGGMAASVSPSVSYDPNTPVTNTKYTITTDGGVTPTTVVTPVVTPPPSPALSAGGSAGGSAGG [r7_413_JUSTAS]”, the “folding stability dG unfold” value is -0.148 ± 0.16 kcal/mol in data set [1], 0.149 ± 0.11 kcal/mol in data set [2] and 0.198 ± 0.17 kcal/mol in data set [3].

With “SAGGSAGGSAGGMEIEKNENGELIIKFKSKEEAEKAIEELKKKGYKVELNEDGYLIIKPSAGGSAGGSAGGS [r10_1027_TrROS_Hall]”, the “folding stability dG unfold” value in data set [1] was determined as 3.34 ± 0.16 kcal/mol; in data set [2] it was 4.07 ± 0.14 kcal/mol; in data set [3] it was 3.96 ± 0.13 kcal/mol.

For “SAGGSAGGSAGGMEIIEKEETLDEETLKKLEEEGVPKSEATVKVTEVIYKEEYPEEGLKSAGGSAGGSAGGS [r10_1149_JUSTAS]”, the results for the “folding stability dG unfold” value in data set [1], in data set [2] and in data set [3] were 0.359 ± 0.072 kcal/mol, -0.692 ± 0.28 kcal/mol and -0.137 ± 0.34 kcal/mol, respectively.

For “SAGGSAGGSAGGMEIREVEVTFVPPDGTTTTRKVLATSEEEAKAILEEELPPDWEIILRSAGGSAGGSAGGS [r10_145_JUSTAS]”, the figures for the “folding stability dG unfold” value in data set [1], in data set [2] and in data set [3] were -0.122 ± 0.11 kcal/mol, 0.831 ± 0.034 kcal/mol and 0.55 ± 0.082 kcal/mol, respectively.

Regarding “SAGGSAGGSAGGMEKVTEVKPVATLPNGTVVTETLVTYTAPNGPEIGEEVVLTEDPVPKSAGGSAGGSAGGS [r10_941_JUSTAS]”, the figures for the “folding stability dG unfold” value in data set [1], in data set [2] and in data set [3] were -0.942 ± 0.22 kcal/mol, -0.408 ± 0.2 kcal/mol and -0.455 ± 0.15 kcal/mol, respectively.

“SAGGSAGGSAGGMELELTFATPEQAVEYAERFERLGYEVEVEYYPETGLVRVRVRLYPEESAGGSAGGSAGG [r7_623_TrMRF]”: the “folding stability dG unfold” value in data set [1] came to 3.97 ± 0.11 kcal/mol; in data set [2], 3.6 ± 0.072 kcal/mol; in data set [3], 3.76 ± 0.074 kcal/mol.

Turning to “SAGGSAGGSAGGMEVKTVEDPKGLTVEVSPPVGTATTVYGDETVTHTLSPSATVALEPASAGGSAGGSAGGS [r10_637_JUSTAS]”, the “folding stability dG unfold” value is -0.0233 ± 0.042 kcal/mol in data set [1], 0.435 ± 0.033 kcal/mol in data set [2] and 0.31 ± 0.1 kcal/mol in data set [3].

“SAGGSAGGSAGGMEYSISNVTTETFPEGNKTVTVETYTFDDGGTITVTKENGKVLEVNPKSAGGSAGGSAGG [r7_552_JUSTAS]”: the “folding stability dG unfold” value is -1.57 ± 0.56 kcal/mol in data set [1], 0.586 ± 0.062 kcal/mol in data set [2] and 0.135 ± 0.11 kcal/mol in data set [3].

“SAGGSAGGSAGGMFVRIEVDGKTILLEADSLEEALAAIRALLPPGEKVKVELVSEEELKSAGGSAGGSAGGS [r10_1167_TrROS_Hall]”: the “folding stability dG unfold” value worked out at 2.44 ± 0.084 kcal/mol in data set [1], 3.04 ± 0.068 kcal/mol in data set [2] and 2.85 ± 0.047 kcal/mol in data set [3].

On to “SAGGSAGGSAGGMIKTEDGYEVEIKIEVEEIPLPEGMSEEEKEKLKKIRIIRIEIKVTKKSAGGSAGGSAGG [r7_324_TrROS_Hall]”, for which the “folding stability dG unfold” value in data set [1] was 1.67 ± 0.12 kcal/mol; in data set [2], 2.5 ± 0.33 kcal/mol; in data set [3] it was 2.26 ± 0.36 kcal/mol.

With “SAGGSAGGSAGGMILVENPSLNESTVLSKDTPISSFKVPSDNSKVRIIIIYPSNSFVVISSAGGSAGGSAGG [r7_763_JUSTAS]”, the “folding stability dG unfold” value was 1.85 ± 0.073 kcal/mol in data set [1], 1.55 ± 0.14 kcal/mol in data set [2] and 1.71 ± 0.088 kcal/mol in data set [3].

“SAGGSAGGSAGGMIRIENPGNGEPRPIKPNDLEDILDNFPGPMRIETGGGEKEVPAKDISAGGSAGGSAGGS [r10_839_TrROS]”: the entries for the “folding stability dG unfold” value in data set [1], in data set [2] and in data set [3] were -0.528 ± 0.13 kcal/mol, 0.052 ± 0.079 kcal/mol and -0.0618 ± 0.21 kcal/mol, respectively.

With “SAGGSAGGSAGGMIRIVNEETGEEIEISPEELEELLAKSDKPVRIEVDGKVIPLDAKDLSAGGSAGGSAGGS [r10_839_TrROS_Hall]”, the “folding stability dG unfold” value in data set [1] is 0.85 ± 0.03 kcal/mol; in data set [2] it was -0.268 ± 0.054 kcal/mol; in data set [3] it was 0.352 ± 0.091 kcal/mol.

Regarding “SAGGSAGGSAGGMITVEYDPSRPVYTVTVTDPTTGKTTVIDVPRDDLEQALALAEALLKSAGGSAGGSAGGS [r10_1117_JUSTAS]”, the entries for the “folding stability dG unfold” value in data set [1], in data set [2] and in data set [3] were 0.647 ± 0.046 kcal/mol, 1.95 ± 0.03 kcal/mol and 1.67 ± 0.064 kcal/mol, respectively.

“SAGGSAGGSAGGMKITLTVPSEEEIEALTPPDAKITEIKKIGKDPVKGLPYYEVVLDPSSAGGSAGGSAGGS [r10_256_JUSTAS]”: the “folding stability dG unfold” value in data set [1] is -1.42 ± 0.44 kcal/mol; in data set [2], 0.411 ± 0.033 kcal/mol; in data set [3], 0.0912 ± 0.14 kcal/mol.

For the sequence “SAGGSAGGSAGGMKKGQKFKPVKKVKLRFKVKVKVKVGGKEYEFEAEVELEVEFYVLEDSAGGSAGGSAGGS [r10_758_TrROS_Hall]”, the “folding stability dG unfold” value in data set [1] was 2.55 ± 0.2 kcal/mol; in data set [2], 4.41 ± 0.17 kcal/mol; in data set [3], 3.68 ± 0.25 kcal/mol.

On to “SAGGSAGGSAGGMKKPILLPGETEEDVLERIKKLPKDYKVTIEKLDDDKLLVTITSPKLGSAGGSAGGSAGG [r7_662_JUSTAS]”, for which the entries for the “folding stability dG unfold” value in data set [1], in data set [2] and in data set [3] were 0.877 ± 0.14 kcal/mol, -0.5 ± 0.51 kcal/mol and 0.58 ± 0.33 kcal/mol, respectively.

For the sequence “SAGGSAGGSAGGMKLDVTIVGDGKVTTLPADSLEDVEETLKKLGLTLKSVDPATGTVTVASAGGSAGGSAGG [r7_726_JUSTAS]”, the “folding stability dG unfold” value in data set [1] was 0.718 ± 0.051 kcal/mol; in data set [2] it was -0.0786 ± 0.54 kcal/mol; in data set [3], 0.305 ± 0.19 kcal/mol.

For the sequence “SAGGSAGGSAGGMKTITIKVPSSVSFEEAKKKAEALFPKSIPVKVEYDPKTGTFTVTVESAGGSAGGSAGGS [r10_163_JUSTAS]”, the figures for the “folding stability dG unfold” value in data set [1], in data set [2] and in data set [3] were 1.77 ± 0.035 kcal/mol, 2.349 ± 0.015 kcal/mol and 2.17 ± 0.046 kcal/mol, respectively.

As to “SAGGSAGGSAGGMKTITLTTTSPEEAEAAKEKLLKEGPNNLVITYKPPPEPYPENGPRVVSAGGSAGGSAGG [r7_261_JUSTAS]”, the “folding stability dG unfold” value was -0.294 ± 0.25 kcal/mol in data set [1], 0.743 ± 0.14 kcal/mol in data set [2] and 0.683 ± 0.21 kcal/mol in data set [3].

With “SAGGSAGGSAGGMKTLTVTTESLTKEEIIEEIKAMGYPNAKVTVTPSPENPDKYIVNVIESAGGSAGGSAGG [r7_988_JUSTAS]”, the “folding stability dG unfold” value in data set [1] amounted to 0.292 ± 0.091 kcal/mol; in data set [2] it was 0.736 ± 0.13 kcal/mol; in data set [3], 0.404 ± 0.18 kcal/mol.

Consider “SAGGSAGGSAGGMKVKAYIFENGKLKEIELSEEELKELLKKLPNARILIEVDGKKLELPASAGGSAGGSAGG [r7_188_TrROS_Hall]”, for which the entries for the “folding stability dG unfold” value in data set [1], in data set [2] and in data set [3] were 1.93 ± 0.083 kcal/mol, 3.79 ± 0.12 kcal/mol and 3.51 ± 0.2 kcal/mol, respectively.

As for “SAGGSAGGSAGGMKVTTINLPDGTTIEYYPETGSVTIHPSDGSVSTRPDLTLEDVLAALSAGGSAGGSAGGS [r10_569_JUSTAS]”, the “folding stability dG unfold” value in data set [1] came to 2.38 ± 0.066 kcal/mol; in data set [2], 1.81 ± 0.031 kcal/mol; in data set [3], 2.07 ± 0.051 kcal/mol.

Consider “SAGGSAGGSAGGMLSGQVIEVTIPPERRLVRVEKLPSGDYLITIYRPDEPKPLETLRIRASAGGSAGGSAGG [r7_620_JUSTAS]”, for which the “folding stability dG unfold” value in data set [1] is 1.49 ± 0.034 kcal/mol; in data set [2], 1.92 ± 0.071 kcal/mol; in data set [3], 1.78 ± 0.11 kcal/mol.

For “SAGGSAGGSAGGMLYVKVKTEDGEELVLEVEGMTEDEIREELAKAGFKIEEIEVYEVEPSAGGSAGGSAGGS [r10_572_TrROS_Hall]”, the figures for the “folding stability dG unfold” value in data set [1], in data set [2] and in data set [3] were 2.36 ± 0.093 kcal/mol, 2.83 ± 0.018 kcal/mol and 2.71 ± 0.06 kcal/mol, respectively.

In the case of “SAGGSAGGSAGGMPLVRIEVTNENGEKFTFIFESEEEAKAAAEALGVDVKIEKIPPGEEISAGGSAGGSAGG [r7_456_TrROS_Hall]”, the “folding stability dG unfold” value in data set [1] was 2.54 ± 0.17 kcal/mol; in data set [2], 3.25 ± 0.085 kcal/mol; in data set [3], 2.92 ± 0.14 kcal/mol.

For the sequence “SAGGSAGGSAGGMPPATTVVEKPETSLTLEKTPTTVTIHDKATGKTSTVPAAEVDPALLSAGGSAGGSAGGS [r10_512_JUSTAS]”, the “folding stability dG unfold” value in data set [1] was -0.373 ± 0.11 kcal/mol; in data set [2], 0.297 ± 0.075 kcal/mol; in data set [3], 0.138 ± 0.1 kcal/mol.

On to “SAGGSAGGSAGGMPPFVELEFVGEFKVNGEKVLVLRLPDGSIRIVNLKTGETITVPASLLSAGGSAGGSAGG [r7_28_JUSTAS]”, for which the figures for the “folding stability dG unfold” value in data set [1], in data set [2] and in data set [3] were 2.33 ± 0.048 kcal/mol, 2.67 ± 0.038 kcal/mol and 2.57 ± 0.067 kcal/mol, respectively.

In the case of “SAGGSAGGSAGGMPPGTVVRSEVVRTETFTETITLPSGETATTTVTTTTTTEVEVEQPLSAGGSAGGSAGGS [r10_297_JUSTAS]”, the figures for the “folding stability dG unfold” value in data set [1], in data set [2] and in data set [3] were 0.233 ± 0.079 kcal/mol, 0.469 ± 0.047 kcal/mol and 0.54 ± 0.22 kcal/mol, respectively.

As to “SAGGSAGGSAGGMPTYEVTLEPDPTGGDVYTVTVTFPDGSTVTRNATPAELKAEGLTVKVSAGGSAGGSAGG [r7_14_JUSTAS]”, the “folding stability dG unfold” value in data set [1] was 1.09 ± 0.039 kcal/mol; in data set [2], 0.88 ± 0.044 kcal/mol; in data set [3], 0.967 ± 0.072 kcal/mol.
